From patent publication US20100311648A1 (AstraZeneca / MedImmune, published 2010)
Positions of bridges follow the written chain, without caps; N, C: chain ends. Non-standard residues stand in square brackets, D forms with d. dPhe(3,4-F2) = N[C@H](Cc1ccc(F)c(F)c1)C(=O)O; dPhe(3,5-F2) = N[C@H](Cc1cc(F)cc(F)c1)C(=O)O; dPhe(4-CN) = N#Cc1ccc(C[C@@H](N)C(=O)O)cc1; dPhe(3-Cl) = N[C@H](Cc1cccc(Cl)c1)C(=O)O; dPhe(3-Me) = Cc1cccc(C[C@@H](N)C(=O)O)c1; dPhe(2-Cl) = N[C@H](Cc1ccccc1Cl)C(=O)O; dPhe(4-F) = N[C@H](Cc1ccc(F)cc1)C(=O)O; dPhe(2-F) = N[C@H](Cc1ccccc1F)C(=O)O; Orn = NCCC[C@H](N)C(=O)O

What was measured:
[1] = molecular target: T1, human melanocortin-4 receptor (human, UniProt P32245 1-332); test: cell-based or functional assay
[2] = molecular target: T1, human melanocortin-4 receptor; test: [I125]-NDP-α-MSH competition, hMC4-R HEK-293 membranes
Description: A competitive inhibition binding assay was performed for exemplified peptides according to the invention using membrane homogenates prepared from HEK-293 cells that express recombinant hMC4-R, hMC3-R, or hMC5-R, and from B-16 mouse melanoma cells (containing endogenous MC1-R). In some instances, HEK-293 cells that express recombinant hMC1-R were employed. Assays were performed in 96 well GF/B Millipore multiscreen filtration plates (MAFB NOB10) pre-coated with 0.5% bovine serum albumin (Fraction V). […] After incubation for 60 minutes at 37° C., the assay mixture was filtered and the membranes washed three times with ice-cold buffer. Filters were dried and counted in a gamma counter for bound radioactivity. […] Each assay was conducted in triplicate and the actual mean values are described, with results less than 0% reported as 0%. Ki values for test peptides of the present invention were determined using Graph-Pad Prism® curve-fitting software.

T1 sequence (P32245 whole entry): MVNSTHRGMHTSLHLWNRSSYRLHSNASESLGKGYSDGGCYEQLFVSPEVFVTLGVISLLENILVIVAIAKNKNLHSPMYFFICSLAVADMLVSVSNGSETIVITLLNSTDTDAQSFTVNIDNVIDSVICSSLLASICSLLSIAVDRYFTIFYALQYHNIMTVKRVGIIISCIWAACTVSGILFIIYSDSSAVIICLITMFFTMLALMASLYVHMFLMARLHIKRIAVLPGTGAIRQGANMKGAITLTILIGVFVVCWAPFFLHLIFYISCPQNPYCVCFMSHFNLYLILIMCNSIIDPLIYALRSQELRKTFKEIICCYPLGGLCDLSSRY

| EC50, cAMP, 10 ng/mL Doxycycline [1] | Intrinsic Activity, cAMP, 0.1 ng/mL Doxycycline [1] | Intrinsic Activity, cAMP, 10 ng/mL Doxycycline [1] | Ki [2] | EC50, cAMP, 0.1 ng/mL Doxycycline [1] | Binder |
| --- | --- | --- | --- | --- | --- |
| 1 nM | 8% | 89% | 6 nM | – | Ac-RET[dPhe(3-Cl)]RW[Orn]-NH2 (lactam 2-7; SMILES CC(=O)N[C@@H](CCCNC(=N)N)C(=O)N[C@H]1CCC(=O)NCCC[C@@H](C(N)=O)NC(=O)[C@H](Cc2c[nH]c3ccccc23)NC(=O)[C@H](CCCNC(=N)N)NC(=O)[C@@H](Cc2cccc(Cl)c2)NC(=O)[C@H]([C@@H](C)O)NC1=O, also called No. 36) [Ac-Arg-cyclo(Glu-Thr-D-Phe(3-Cl)-Arg-Trp-Orn)-NH2] |
| 0.5 nM | 9% | 84% | 6 nM | – | Ac-REV[dPhe(4-CN)]RW[Orn]-NH2 (lactam 2-7, also called No. 42) [Ac-Arg-cyclo(Glu-Val-D-Phe(4-CN)-Arg-Trp-Orn)-NH2] |
| 0.125 nM | 43% | – | 3 nM | 0.65 nM | Ac-R[Orn]N[dPhe(3,4-F2)]RWE-NH2 (lactam 2-7, also called No. 75) [Ac-Arg-cyclo(Orn-Asn-D-Phe(3,4-diF)-Arg-Trp-Glu)-NH2] |
| 0.17 nM | 44% | 97% | 1 nM | 0.3 nM | Ac-RKQ[dPhe(4-CN)]RWD-NH2 (lactam 2-7; SMILES CC(=O)N[C@@H](CCCNC(=N)N)C(=O)N[C@H]1CCCCNC(=O)C[C@@H](C(N)=O)NC(=O)[C@H](Cc2c[nH]c3ccccc23)NC(=O)[C@H](CCCNC(=N)N)NC(=O)[C@@H](Cc2ccc(C#N)cc2)NC(=O)[C@H](CCC(N)=O)NC1=O, also called No. 93) [Ac-Arg-cyclo(Lys-Gln-D-Phe(4-CN)-Arg-Trp-Asp)-NH2] |
| 0.065 nM | – | 100% | 7 nM | 0.72 nM | Ac-R[Orn]N[dPhe(2-Cl)]RWE-NH2 (lactam 2-7) [Ac-Arg-cyclo(Orn-Asn-D-Phe(2-Cl)-Arg-Trp-Glu)-NH2] |
| 0.265 nM | 18% | 96% | 4 nM | 1 nM | Ac-R[Orn]N[dPhe(4-CN)]RWE-NH2 (lactam 2-7, also called No. 91) [Ac-Arg-cyclo(Orn-Asn-D-Phe(4-CN)-Arg-Trp-Glu)-NH2] |
| 0.35 nM | 11% | – | 4 nM | 3 nM | Ac-R[Orn]N[dPhe(3-Me)]RWE-NH2 (lactam 2-7, also called No. 72) [Ac-Arg-cyclo(Orn-Asn-D-Phe(3-Me)-Arg-Trp-Glu)-NH2] |
| 0.1 nM | 90% | 98% | 7 nM | 0.6 nM | Ac-REQ[dPhe(2-F)]RW[Orn]-NH2 (lactam 2-7, also called No. 59) [Ac-Arg-cyclo(Glu-Gln-D-Phe(2-F)-Arg-Trp-Orn)-NH2] |
| 0.2 nM | 48% | 89% | 8 nM | 2 nM | XDQXRWK (N-terminal Ac; D-Arg 1; D-Phe(3,4-diF) 4; lactam Asp 2-Lys 7; C-terminal NH2, also called No. 78) [Ac-D-Arg-cyclo(Asp-Gln-D-Phe(3,4-diF)-Arg-Trp-Lys)-NH2] |
| 0.04 nM | 81% | 89% | 2 nM | 0.1 nM | Ac-REQ[dPhe(4-F)]RW[Orn]-NH2 (lactam 2-7, also called No. 92) [Ac-Arg-cyclo(Glu-Gln-D-Phe(4-F)-Arg-Trp-Orn)-NH2] |
| 0.1 nM | 64% | – | 3 nM | 0.4 nM | Ac-R[Orn]N[dPhe(4-F)]RWE-NH2 (lactam 2-7, also called No. 70) [Ac-Arg-cyclo(Orn-Asn-D-Phe(4-F)-Arg-Trp-Glu)-NH2] |
| 0.09 nM | 32% | 92% | 0.9 nM | 0.24 nM | Ac-R[Orn]Q[dPhe(4-CN)]RWE-NH2 (lactam 2-7, also called No. 94) [Ac-Arg-cyclo(Orn-Gln-D-Phe(4-CN)-Arg-Trp-Glu)-NH2] |
| 0.15 nM | 35% | 94% | 7 nM | 3 nM | Ac-R[Orn]P[dPhe(2-F)]RWE-NH2 (lactam 2-7; SMILES CC(=O)N[C@@H](CCCNC(=N)N)C(=O)N[C@H]1CCCNC(=O)CC[C@@H](C(N)=O)NC(=O)[C@H](Cc2c[nH]c3ccccc23)NC(=O)[C@H](CCCNC(=N)N)NC(=O)[C@@H](Cc2ccccc2F)NC(=O)[C@@H]2CCCN2C1=O) [Ac-Arg-cyclo(Orn-Pro-D-Phe(2-F)-Arg-Trp-Glu)-NH2] |
| 0.07 nM | 83% | 101% | 4 nM | 0.39 nM | Ac-R[Orn]Q[dPhe(2-Cl)]RWE-NH2 (lactam 2-7) [Ac-Arg-cyclo(Orn-Gln-D-Phe(2-Cl)-Arg-Trp-Glu)-NH2] |
| 10 nM | 16% | 100% | 78 nM | 191 nM | RDPXRWK (N-terminal Ac; D-Phe(2-F) 4; lactam Asp 2-Lys 7; C-terminal NH2) [Ac-Arg-cyclo(Asp-Pro-D-Phe(2-F)-Arg-Trp-Lys)-NH2] |
| 0.45 nM | 23% | 85% | 13 nM | 4 nM | XDQXRWK (N-terminal Ac; D-Arg 1; D-Phe(4-CN) 4; lactam Asp 2-Lys 7; C-terminal NH2, also called No. 81) [Ac-D-Arg-cyclo(Asp-Gln-D-Phe(4-CN)-Arg-Trp-Lys)-NH2] |
| 0.13 nM | 32% | 100% | 4 nM | 1 nM | RDPXRWK (N-terminal Ac; D-Phe(4-F) 4; lactam Asp 2-Lys 7; C-terminal NH2, also called No. 103) [Ac-Arg-cyclo(Asp-Pro-D-Phe(4-F)-Arg-Trp-Lys)-NH2] |
| 17 nM | 6% | 87% | 48 nM | – | Ac-RDN[dPhe(4-CN)]RWK-NH2 (lactam 2-7, also called No. 89) [Ac-Arg-cyclo(Asp-Asn-D-Phe(4-CN)-Arg-Trp-Lys)-NH2] |
| 0.283 nM | 31% | 96% | 5 nM | 4 nM | RDQXRWK (N-terminal Ac; D-Phe(4-CN) 4; lactam Asp 2-Lys 7; C-terminal NH2, also called No. 90) [Ac-Arg-cyclo(Asp-Gln-D-Phe(4-CN)-Arg-Trp-Lys)-NH2] |
| 0.173 nM | 40% | 97% | 4 nM | 0.666 nM | Ac-REQ[dPhe(4-CN)]RW[Orn]-NH2 (lactam 2-7; also: acetate salt, acetate salt form; also called Ex 46) [Ac-Arg-cyclo(Glu-Gln-D-Phe(4-CN)-Arg-Trp-Orn)-NH2] |
| 0.095 nM | 79% | 95% | 10 nM | 2 nM | XDQXRWK (N-terminal Ac; D-Arg 1; D-Phe(2-F) 4; lactam Asp 2-Lys 7; C-terminal NH2, also called No. 82) [Ac-D-Arg-cyclo(Asp-Gln-D-Phe(2-F)-Arg-Trp-Lys)-NH2] |
| 0.075 nM | 78% | 94% | 6 nM | 0.75 nM | XDQXRWK (N-terminal Ac; D-Arg 1; D-Phe(4-F) 4; lactam Asp 2-Lys 7; C-terminal NH2, also called No. 83) [Ac-D-Arg-cyclo(Asp-Gln-D-Phe(4-F)-Arg-Trp-Lys)-NH2] |
| 0.155 nM | 34% | 80% | 8 nM | 3 nM | Ac-R[Orn]N[dPhe(3,5-F2)]RWE-NH2 (lactam 2-7, also called No. 77) [Ac-Arg-cyclo(Orn-Asn-D-Phe(3,5-diF)-Arg-Trp-Glu)-NH2] |
